Data from US20230056486.
Several values for one entry are separate records, joined by “and”; a condition that tells them apart may be missing. Equal values may be shown once.

What was measured:
[1] = test system: T1, (GR)10 dipeptide repeat peptide
T1 sequence: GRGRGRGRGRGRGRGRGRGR

[2] = test system: T2, Biotin-(PEG)4-(GR)10
T2 sequence: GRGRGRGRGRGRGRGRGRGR

Sequence of Immobilized TPCK-trypsin on agarose resin; ThermoFisher Cat #20230 (P00760 24-246): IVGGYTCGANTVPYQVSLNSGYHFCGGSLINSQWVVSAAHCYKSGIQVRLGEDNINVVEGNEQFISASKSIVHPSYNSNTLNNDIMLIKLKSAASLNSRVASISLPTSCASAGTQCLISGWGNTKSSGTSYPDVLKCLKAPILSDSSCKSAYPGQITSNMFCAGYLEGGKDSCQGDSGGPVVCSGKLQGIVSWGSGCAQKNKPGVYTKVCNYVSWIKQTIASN

Row | Substance | (GR)10 concentration left at 0 min (LC/MS; 50 µM start; TFA added before enzyme) [1] | (GR)10 concentration left at 5 min (LC/MS; 50 µM start) [1] | (GR)10 concentration left at 10 min (LC/MS; 50 µM start) [1] | (GR)10 concentration left at 30 min (LC/MS; 50 µM start) [1] | (GR)10 concentration left at 60 min (LC/MS; 50 µM start) [1] | proteolytic activity on (GR)10 of immobilized enzyme after storage at 4° C. for over 2 months (LC/MS) [1] | digestion of biotin-(PEG)4-(GR)10 after 5 minutes, immobilized enzyme (LC/MS) [2] | (GR)10 concentration left at 120 min (LC/MS; 50 µM start) [1] | other results
1 | Factor Xa |  |  |  |  |  |  |  |  | (GR)10 concentration left at 0 min (LC/MS; 50 µM start; TRIS buffer; TFA added before enzyme) [1]: 33.1 µM and 31 µM; (GR)10 concentration left at 5 min (LC/MS; 50 µM start; TRIS buffer) [1]: 35 µM and 23.5 µM; (GR)10 concentration left at 10 min (LC/MS; 50 µM start; TRIS buffer) [1]: 19.4 µM and 13.6 µM
2 | elastase | 53.8 µM and 41.6 µM | 52.6 µM and 50.5 µM | 52.5 µM and 37.8 µM | 43.6 µM and 21.1 µM | 35.3 µM and 12.2 µM | agarose resin having immobilized elastase did not exhibit substantial (GR)10 proteolytic activity at either 5 minute or 60 minute treatment times | over 90% digestion of biotin-(PEG)4-(GR)10 after only 5 minutes of incubation time |  | (GR)10 left in CSF; Elastase-Immobilized-5 min reaction (LC/MS; 200 µM (GR)10 in human CSF) (normalized µM) [1]: -0; (GR)10 left in CSF; Elastase-Immobilized-605 min reaction [as printed; 60 min meant] (LC/MS; 200 µM (GR)10 in human CSF) (normalized µM) [1]: -0; (GR)10 left; Elastase-Immobilized-5 min reaction (LC/MS) (µM (normalized to GR concentration)) [1]: -0; (GR)10 left; Elastase-immobilized-60 min reaction (LC/MS) (µM (normalized to GR concentration)) [1]: -0; (GR)10 left; Elastase-in solution-5 min reaction (LC/MS) [1]: 213 µM; (GR)10 left; Elastase-in solution-60 min reaction (LC/MS) (µM (normalized to GR concentration)) [1]: 21.6; (GR)10 left; Elastase-resin wash from 5 min reaction (LC/MS) (µM (normalized to GR concentration)) [1]: -0; (GR)10 left; Elastase-resin wash from 60 min reaction (LC/MS) (µM (normalized to GR concentration)) [1]: -0
3 | trypsin | 52.8 µM and 48.9 µM | 2.2 µM and 2 µM | BLQ | BLQ | BLQ | agarose resin having immobilized trypsin exhibited proteolytic activity after storage at 4 °C for over 2 months | over 90% digestion of biotin-(PEG)4-(GR)10 after only 5 minutes of incubation time | BLQ | (GR)10 left in CSF; Trypsin-Immobilized-5 min reaction (LC/MS; 200 µM (GR)10 in human CSF) [1]: 0 µM; (GR)10 left in CSF; Trypsin-Immobilized-60 min reaction (LC/MS; 200 µM (GR)10 in human CSF) (normalized µM) [1]: -0; (GR)10 left; Trypsin-Immobilized-5 min reaction (LC/MS) [1]: 0 µM; (GR)10 left; Trypsin-immobilized-60 min reaction (LC/MS) [1]: 0 µM; (GR)10 left; Trypsin-in solution-5 min reaction (LC/MS) [1]: 0 µM; (GR)10 left; Trypsin-in solution-60 min reaction (LC/MS) [1]: 0 µM; (GR)10 left; Trypsin-resin wash from 5 min reaction (LC/MS) [1]: 6.6 µM; (GR)10 left; Trypsin-resin wash from 60 min reaction (LC/MS) [1]: 0 µM; conversion of (GR)10 to shorter GR repeats (LC/MS) [1]: Almost complete conversion to (GR)1 and (GR)2 was observed in 5 to 10 min using either 2.5 or 10 µg/mL of trypsin for concentrations 50 µM of (GR)10
4 | Kallikrein 6 (neurosin), autoactivated | 27.8 µM and 54.7 µM | 42.2 µM and 57.5 µM | 50.1 µM and 60.8 µM | 57.8 µM and 65 µM | 54.2 µM and 71.5 µM |  |  | 54.3 µM and 57.4 µM | 
5 | Immobilized TPCK-trypsin on agarose resin; ThermoFisher Cat #20230 |  |  | 2.1 µM and 1.6 µM | 0.6 µM and 0.9 µM |  |  | over 90% digestion of biotin-(PEG)4-(GR)10 after only 5 minutes of incubation time | 0.1 µM | (GR)10 concentration left at 0 min (LC/MS; 50 µM start) [1]: 68.4 µM and 32.7 µM; (GR)10 left in CSF; Commercial Trypsin-Immobilized-5 min reaction (LC/MS; 200 µM (GR)10 in human CSF) (normalized µM) [1]: -0; (GR)10 left in CSF; Commercial Trypsin-Immobilized-605 min reaction [as printed; 60 min meant] (LC/MS; 200 µM (GR)10 in human CSF) (normalized µM) [1]: -0; (GR)10 left; Commercial Trypsin-Immobilized-5 min reaction (LC/MS) [1]: 0 µM; (GR)10 left; Commercial Trypsin-immobilized-60 min reaction (LC/MS) [1]: 0 µM; (GR)10 left; Commercial Trypsin-resin wash from 5 min reaction (LC/MS) [1]: 0 µM; (GR)10 left; Commercial Trypsin-resin wash from 60 min reaction (LC/MS) [1]: 0 µM; digestion of (GR)10 to shorter GR repeats (LC/MS) [1]: Immobilized trypsin at 6.25 TAME Units digests (GR)10 to almost exclusively (GR)1 in 10 to 30 minutes
6 | thrombin (activated by thermolysin, quenched by EDTA) | 37.7 µM and 52 µM | 42.9 µM and 54.8 µM | 46.7 µM and 59.4 µM | 49.1 µM and 48.6 µM | 56.2 µM and 55.2 µM |  |  | 45.3 µM and 48.7 µM | 
